# Reference: IntAct's records for PubMed 12810663
# B1: DNA mismatch repair protein Mlh1 (Homo sapiens), P40692 (parent)
# chain: MSFVAGVIRRLDETVVNRIAAGEVIQRPANAIKEMIENCLDAKSTSIQVIVKEGGLKLIQIQDNGTGIRKEDLDIVCERFTTSKLQSFEDLASISTYGFRGEALASISHVAHVTITTKTADGKCAYRASYSDGKLKAPPKPCAGNQGTQITVEDLFYNIATRRKALKNPSEEYGKILEVVGRYSVHNAGISFSVKKQGETVADVRTLPNASTVDNIRSIFGNAVSRELIEIGCEDKTLAFKMNGYISNANYSVKKCIFLLFINHRLVESTSLRKAIETVYAAYLPKNTHPFLYLSLEISPQNVDVNVHPTKHEVHFLHEESILERVQQHIESKLLGSNSSRMYFTQTLLPGLAGPSGEMVKSTTSLTSSSTSGSSDKVYAHQMVRTDSREQKLDAFLQPLSKPLSSQPQAIVTEDKTDISSGRARQQDEEMLELPAPAEVAAKNQSLEGDTTKGTSEMSEKRGPTSSNPRKRHREDSDVEMVEDDSRKEMTAACTPRRRIINLTSVLSLQEEINEQGHEVLREMLHNHSFVGCVNPQWALAQHQTKLYLLNTTKLSEELFYQILIYDFANFGVLRLSEPAPLFDLAMLALDSPESGWTEEDGPKEGLAEYIVEFLKKKAEMLADYFSLEIDEEGNLIGLPLLIDNYVPPLEGLPIFILRLATEVNWDEEKECFESLSKECAMFYSIRKQYISEESTLSGQQSEVPGSIPNSWKWTVEHIVYKALRSHILPPKHFTEDGNILQLANLPDLYKVFERC
# B2: DNA mismatch repair protein Mlh1 (Homo sapiens), P40692 (parent)
# chain: B1 chain
# partner: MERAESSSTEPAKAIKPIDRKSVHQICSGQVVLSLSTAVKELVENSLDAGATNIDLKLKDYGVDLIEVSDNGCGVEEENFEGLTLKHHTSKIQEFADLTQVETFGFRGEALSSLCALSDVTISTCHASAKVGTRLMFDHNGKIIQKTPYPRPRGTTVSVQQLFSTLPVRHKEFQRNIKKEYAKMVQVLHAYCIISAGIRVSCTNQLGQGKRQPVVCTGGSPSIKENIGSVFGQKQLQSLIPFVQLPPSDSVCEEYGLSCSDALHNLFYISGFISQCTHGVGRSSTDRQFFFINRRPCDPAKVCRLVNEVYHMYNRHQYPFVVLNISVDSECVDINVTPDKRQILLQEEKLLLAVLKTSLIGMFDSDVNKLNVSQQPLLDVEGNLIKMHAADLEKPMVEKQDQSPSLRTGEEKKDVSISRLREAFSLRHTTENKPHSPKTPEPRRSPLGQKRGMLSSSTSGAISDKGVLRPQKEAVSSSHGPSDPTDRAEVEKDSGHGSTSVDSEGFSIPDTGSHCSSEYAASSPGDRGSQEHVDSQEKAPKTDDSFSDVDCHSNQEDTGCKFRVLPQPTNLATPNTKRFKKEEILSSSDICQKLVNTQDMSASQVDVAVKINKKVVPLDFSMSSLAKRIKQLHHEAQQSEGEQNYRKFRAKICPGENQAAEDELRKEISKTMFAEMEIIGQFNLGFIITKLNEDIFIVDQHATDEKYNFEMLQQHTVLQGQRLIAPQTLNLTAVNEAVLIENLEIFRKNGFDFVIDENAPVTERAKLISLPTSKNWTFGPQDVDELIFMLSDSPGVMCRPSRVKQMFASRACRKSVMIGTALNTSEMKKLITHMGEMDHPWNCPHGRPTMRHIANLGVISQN
# Variants of: B1
# Settings: with exo1_human EXO1, Q9UQ84
row,Variant,effect of a mutation on the interaction
1,G67R,disrupting interaction strength
2,M35R,disrupting interaction strength
3,I107R,disrupting interaction strength
4,I32V,with no effect
5,S44F,disrupting interaction strength
6,P28L,disrupting interaction strength
7,T117M,disrupting interaction strength
8,T117R,disrupting interaction strength
9,A128P,disrupting interaction strength
10,C77Y,disrupting interaction strength
11,I68N,disrupting interaction strength

# Continued, values first:
row,effect of a mutation on the interaction,Variant
1,with no effect,S406N
2,with no effect,R265H
3,disrupting interaction strength,V185G
4,with no effect,V326A
5,disrupting interaction strength,G244D
6,with no effect,V213M
7,with no effect,R217C
8,with no effect,I219L
9,with no effect,I219V

# Variants of: B2
# Settings: with pms2_human PMS2, P54278
row,Variant,effect of a mutation on the interaction
1,S44F,disrupting interaction strength
2,I107R,disrupting interaction strength
3,T117M,disrupting interaction strength
4,T117R,disrupting interaction strength
5,M35R,disrupting interaction strength
6,I68N,disrupting interaction strength
7,C77Y,disrupting interaction strength
8,I32V,with no effect
9,P28L,disrupting interaction strength
10,G67R,disrupting interaction strength

# The remaining lines, values ahead:
row,effect of a mutation on the interaction,Variant
1,with no effect,S406N
2,disrupting interaction strength,A128P
3,with no effect,R265H
4,disrupting interaction strength,V185G
5,with no effect,R217C
6,disrupting interaction strength,G244D
7,with no effect,V213M
8,with no effect,I219V
9,with no effect,I219L

# Variants of: B2
# Settings: with pms2_human PMS2, P54278
# Remark: another data set of the same source
row,Variant,effect of a mutation on the interaction
1,S44F,with no effect
2,I107R,with no effect
3,T117M,with no effect
4,T117R,with no effect
5,M35R,with no effect
6,I68N,with no effect
7,C77Y,with no effect
8,P28L,with no effect
9,G67R,with no effect

# Second part, the variant after the results:
row,effect of a mutation on the interaction,Variant
1,with no effect,A128P
2,with no effect,V326A
3,with no effect,V185G
4,with no effect,G244D

# Variants of: B2
# Settings: with pms2_human PMS2, P54278
# Remark: another data set of the same source
row,effect of a mutation on the interaction,Variant
1,decreasing interaction strength,C77Y
